Biological target: full length human PSMA on cells (LNCaP, C4-2B, LNCaP AR, 22RV1 prostate tumor cells; human tissue) (human, UniProt Q04609 1-750)
Test: cell-based or functional assay

Chain of full length human PSMA on cells (LNCaP, C4-2B, LNCaP AR, 22RV1 prostate tumor cells; human tissue) (Q04609 whole entry): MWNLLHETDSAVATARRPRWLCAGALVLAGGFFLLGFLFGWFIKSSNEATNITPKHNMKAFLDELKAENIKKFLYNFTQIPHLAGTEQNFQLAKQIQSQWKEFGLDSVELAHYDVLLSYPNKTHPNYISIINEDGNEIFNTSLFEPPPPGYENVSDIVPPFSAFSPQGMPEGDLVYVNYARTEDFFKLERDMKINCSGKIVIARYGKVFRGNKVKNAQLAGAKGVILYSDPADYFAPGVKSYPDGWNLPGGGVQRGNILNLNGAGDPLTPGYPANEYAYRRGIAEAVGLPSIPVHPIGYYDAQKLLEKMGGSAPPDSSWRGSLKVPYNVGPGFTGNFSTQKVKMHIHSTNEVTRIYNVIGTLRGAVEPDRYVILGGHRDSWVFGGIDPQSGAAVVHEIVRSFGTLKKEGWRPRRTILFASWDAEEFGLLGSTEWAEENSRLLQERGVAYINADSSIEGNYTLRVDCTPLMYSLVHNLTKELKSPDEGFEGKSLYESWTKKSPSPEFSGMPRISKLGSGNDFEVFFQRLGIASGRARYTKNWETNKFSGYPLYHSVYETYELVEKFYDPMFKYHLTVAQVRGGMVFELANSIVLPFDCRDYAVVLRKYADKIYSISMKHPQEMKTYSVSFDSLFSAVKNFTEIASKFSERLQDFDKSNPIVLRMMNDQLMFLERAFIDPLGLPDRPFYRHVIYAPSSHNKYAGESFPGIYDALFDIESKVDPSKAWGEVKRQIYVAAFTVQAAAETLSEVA

B1: PS3B27 PSMA×CD3 bispecific antibody (PSMB127 × CD3B219) (bispecific antibody, human IgG4 S228P, kappa, lambda, F234A L235A)
heavy 1: not shown
light 1: not shown
heavy 2: EVQLVESGGGLVQPGGSLRLSCAASGFTFNTYAMNWVRQAPGKGLEWVARIRSKYNNYATYYAASVKGRFTISRDDSKNSLYLQMNSLKTEDTAVYYCARHGNFGNSYVSWFAYWGQGTLVTVSSASTKGPSVFPLAPCSRSTSESTAALGCLVKDYFPEPVTVSWNSGALTSGVHTFPAVLQSSGLYSLSSVVTVPSSSLGTKTYTCNVDHKPSNTKVDKRVESKYGPPCPPCPAPEAAGGPSVFLFPPKPKDTLMISRTPEVTCVVVDVSQEDPEVQFNWYVDGVEVHNAKTKPREEQFNSTYRVVSVLTVLHQDWLNGKEYKCKVSNKGLPSSIEKTISKAKGQPREPQVYTLPPSQEEMTKNQVSLTCLVKGFYPSDIAVEWESNGQPENNYKTTPPVLDSDGSFLLYSKLTVDKSRWQEGNVFSCSVMHEALHNHYTQKSLSLSLGK
light 2: QTVVTQEPSLTVSPGGTVTLTCRSSTGAVTTSNYANWVQQKPGQAPRGLIGGTNKRAPGTPARFSGSLLGGKAALTLSGVQPEDEAEYYCALWYSNLWVFGGGTKLTVLGQPKAAPSVTLFPPSSEELQANKATLVCLISDFYPGAVTVAWKADSSPVKAGVETTTPSKQSNNKYAASSYLSLTPEQWKSHRSYSCQVTHEGSTVEKTVAPTECS
  T cell activation (CD25 expression) median EC50, C4-2B cells co-cultured with donor T cells, 48 hours: 0.06 nM
  T cell dependent cytotoxicity median EC50, C4-2B cells, E:T 3:1, 72 hours: 0.08 nM

From patent publication US20210079115A1 (Janssen / Centocor, published 2021)
